In the test the target is T1, Myc tagged TRPC3 (UniProt Q13507-3 1-848, limits assumed).
T1 construct: Expressed in HEK293T cells and tested in cell lysates; also called Myc-TRPC3
T1 sequence (looked up): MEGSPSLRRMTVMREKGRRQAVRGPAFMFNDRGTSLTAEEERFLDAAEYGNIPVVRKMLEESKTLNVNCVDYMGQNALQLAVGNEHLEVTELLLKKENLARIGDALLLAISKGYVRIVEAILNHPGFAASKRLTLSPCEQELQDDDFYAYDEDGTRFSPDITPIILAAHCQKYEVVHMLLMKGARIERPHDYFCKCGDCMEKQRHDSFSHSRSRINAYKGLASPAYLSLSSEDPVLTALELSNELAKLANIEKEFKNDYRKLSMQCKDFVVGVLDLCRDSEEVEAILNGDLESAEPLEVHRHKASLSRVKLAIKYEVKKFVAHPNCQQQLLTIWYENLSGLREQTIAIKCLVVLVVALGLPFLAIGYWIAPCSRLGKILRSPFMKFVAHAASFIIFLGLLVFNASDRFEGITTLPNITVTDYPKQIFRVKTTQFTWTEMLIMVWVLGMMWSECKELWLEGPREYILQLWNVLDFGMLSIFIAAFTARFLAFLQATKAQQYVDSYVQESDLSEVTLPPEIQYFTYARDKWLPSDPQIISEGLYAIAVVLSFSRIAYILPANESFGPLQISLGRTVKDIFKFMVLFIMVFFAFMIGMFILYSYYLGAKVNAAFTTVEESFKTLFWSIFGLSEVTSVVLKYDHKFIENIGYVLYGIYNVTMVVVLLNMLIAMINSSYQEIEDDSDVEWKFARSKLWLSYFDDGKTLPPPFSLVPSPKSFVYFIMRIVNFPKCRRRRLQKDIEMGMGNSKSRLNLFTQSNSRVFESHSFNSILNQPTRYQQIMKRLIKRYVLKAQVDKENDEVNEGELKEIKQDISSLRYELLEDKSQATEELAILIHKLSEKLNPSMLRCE
The test is described as follows: co-immunoprecipitation from lysates of HEK293T cells cotransfected with V5-SPLUNC1 and Myc-TRPC3. Here is the method: Immunoprecipitation analysis was performed using cell lysates from HEK293T cells cotransfected with V5-SPLUNC1 and Myc-TRPC3. Data represents an n=3 blots.
Antibodies, immunoprecipitation, and immunoblot analysis: Rabbit anti-Orai1, anti-HA epitope (Santa Cruz), anti-GFP, anti-phospho-myosin light chain, anti-total myosin light chain, anti-GAPDH (glyceraldehyde-3-phosphate dehydrogenase) (Cell Signaling Technology); mouse anti-V5 epitope (Life Technologies), were purchased from commercial sources. To detect protein expression in total cell lysates, cells were lysed in Pierce® IP lysis buffer with 25 mM Tris-HCl pH 7.4, 150 mM NaCl, 1% NP-40, 1 mM EDTA, 5% glycerol, followed by SDS-polyacrylamide electrophoresis and immunoblot.

B1: V5-SPLUNC1 (other, not shown: small tags and cut ends)
chain: QFGGLPVPLDQTLPLNVNPALPLSPTGLAGSLTNALSNGLLSGGLLGILENLPLLDILKPGGGTSGGLLGGLLGKVTSVIPGLNNIIDIKVTDPQLLELGLVQSPDGHRLYVTIPLGIKLQVNTPLVGASLLRLAVKLDITAEILAVRDKQERIHLVLGDCTHSPGSLQISLLDGLGPLPIQGLLDSLTGILNKVLPELVQGNVCPLVNEVLRGLDITLVHDIVNMLIHGLQFVIKV
notes: Expressed in HEK293T cells and tested in cell lysates; The tag is placed first only because the name is printed that way; also called pcDNA3.1(+)-V5-SPLUNC1
In the case of B1, the binding result is listed as “no binding”.

For the origin of these results see patent US20190062386A1 (UNIVERSITY OF NORTH CAROLINA AT CHAPEL HILL, published 2019).
